In data set [1] the test system is recombinant DARPP-32 phosphorylated in vitro at Ser137 by CK1.
Data set [2] deals with recombinant DARPP-32.
Data set [3] addresses T1, recombinant DARPP-32 phosphorylated in vitro at Ser137 by CK1.
T1 sequence (Q9UD71 1-204, species assumed, looked up): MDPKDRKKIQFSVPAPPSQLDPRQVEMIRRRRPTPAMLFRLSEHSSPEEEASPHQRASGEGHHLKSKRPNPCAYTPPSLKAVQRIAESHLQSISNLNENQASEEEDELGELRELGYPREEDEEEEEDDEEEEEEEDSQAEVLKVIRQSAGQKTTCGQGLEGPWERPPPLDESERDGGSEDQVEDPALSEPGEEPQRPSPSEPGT
This is another data set of the same source.

Where two headings read alike, the source gives them in different places.

As a reminder, the KM is the concentration of substrate that gives half-maximal velocity. One may read the kcat as the maximal rate divided by the concentration of active sites. In general, kcat/KM refers to the turnover number divided by the Michaelis constant.

For the molecule “recombinant His-tagged PP2Cb (protein phosphatase 2C beta isoform) cloned from rat striatum”, in data set [1], the KM was determined as 25.3 µM; the Vmax, µmol mg^-1 min^-1 (µmol mg^-1 min^-1) stood at 0.99; the “dephosphorylation of phospho-Ser137-DARPP-32 (release of 32P)” value (“dephosphorylation” below) is “the PP2Ca, b and g demonstrated similar initial rates of dephosphorylation”; the kcat is 0.78 s⁻¹. Also, the kcat/KM in data set [1] is 31000 M⁻¹ s⁻¹.
Turning to “recombinant His-tagged PP2Cd (protein phosphatase 2C delta isoform) cloned from rat striatum”, the “dephosphorylation” value in data set [1] is “PP2Cd did not dephosphorylate phospho-Ser137-DARPP-32”.
Take “CK1 (casein kinase 1) obtained from New England BioLabs”: the “stoichiometry of in vitro phosphorylation at Ser137” value in data set [2] is on record as “stoichiometry of 1 mol/mol”.

B1: recombinant His-tagged PP2Cg (protein phosphatase 2C gamma isoform) cloned from rat striatum (protein)
chain: MGAYLSQPNTVKCSGDGVGAPRLPLPYGFSAMQGWRVSMEDAHNCIPELDNETAMFSVYDGHGGEEVALYCAKYLPDIIKDQKAYKEGKLQKALQDAFLAIDAKLTTDEVIKELAQIAGRPTEDEDDKEKVADEDDVDNEEAALLHEEATMTIEELLTRYGQNCQKGPPHTKSGTGIGDEPEPQGLNGEAGPEDPSRETPSQENGPTAKGHTGPSSNSDHGTEAGQIGEPGTATGEAGPSCSSASDKLPRVAKSKFFEDSEDESDEVEEEEDDSEECSEDEDGYSSEEAENEEDEDDTEEAEEDDDEEMMVPGMEGKEEPGSDSGTTAVVALIRGKQLIVANAGDSRCVVSEAGKALDMSYDHKPEDEVELARIKNAGGKVTMDGRVNGGLNLSRAIGDHFYKRNKNLPPQEQMISALPDIKVLTLTDDHEFMVIACDGIWNVMSSQEVVDFIQSKISQRDENGELRLLSSIVEELLDQCLAPDTSGDGTGCDNMTCIIICFKPRNTVELQPESGKRKLEEALSTEGAEENGNSDKKKAKRD
On to B1, for which, in data set [3], the KM came out at 7 µM; the Vmax, µmol mg^-1 min^-1 (µmol mg^-1 min^-1) is 0.31; the “dephosphorylation” value was “the PP2Ca, b and g demonstrated similar initial rates of dephosphorylation”; the kcat was 0.32 s⁻¹. In data set [3], the kcat/KM was 45000 M⁻¹ s⁻¹.

B2: recombinant His-tagged PP2Ca (protein phosphatase 2C alpha isoform) cloned from rat striatum (protein)
chain: MGAFLDKPKMEKHNAQGQGNGLRYGLSSMQGWRVEMEDAHTAVIGLPSGLETWSFFAVYDGHAGSQVAKYCCEHLLDHITNNQDFKGSAGAPSVENVKNGIRTGFLEIDEHMRVMSEKKHGADRSGSTAVGVLISPQHTYFINCGDSRGLLCRNRKVHFFTQDHKPSNPLEKERIQNAGGSVMIQRVNGSLAVSRALGDFDYKCVHGKGPTEQLVSPEPEVHDIERSEEDDQFIILACDGIWDVMGNEELCDFVRSRLEVTDDLEKVCNEVVDTCLYKGSRDNMSVILICFPNAPKVSAEAVKKEAELDKYLENRVEEIIKKQGEGVPDLVHVMRTLASENIPSLPPGGELASKRNVIEAVYNRLNPYKNDDTDSASTDDMW
As to B2, in data set [3], the Michaelis-Menten constant (KM) turned out to be 13.1 µM; the Vmax, µmol mg^-1 min^-1 (µmol mg^-1 min^-1) was 0.39; the “dephosphorylation” value was “the PP2Ca, b and g demonstrated similar initial rates of dephosphorylation”; the kcat stood at 0.31 s⁻¹. Moreover, the kcat/KM in data set [3] came to 23000 M⁻¹ s⁻¹.

The values above are taken from patent publication US20030171255.
